1 substance from patent US5624899 can be followed below.

By pKd is commonly meant the negative decadic logarithm of the Kd, by convention in mol/L. The low end stands for a high Kd, the high end for a low Kd.

In the assay the target is murine Htk ligand (murine). Put plainly: steady-state competition of 125I-Htk-Fc with unlabelled Htk-Fc on SV40MES 13 cells, Scatchard analysis.

pKd: −log10 of the molar value.

With soluble Htk receptor-Fc fusion protein, the pKd is 8.52.
